Measurements from patent publication US20180291110A1 (Hoffmann-La Roche, published 2018).
Changes are numbered by the printed parent chain.

B1: 2/99 VH1/VL17 (antibody, V domains shown)
VH: VQLVETGGGLIQPGGSLRLSCAASGFSLSSYAMSWVRQAPGKGLEWVGYIWSGGSTDYADSVKGRFTISRDNSKNTLYLQMNSLRAEDTAVYYCARRYGTSYPDYGDANGFDPWGQGTLVTVSS
VL: AIQLTQSPSSLSASVGDRVTITCRASQSISSYLAWYQQKPGKAPKLLIYRASTLASGVPSRFSGSGSGTDFTLTISSLQPEDFATYYCQQTYSSSNVDNTFGGGTKVEIK
B2: 2/99 VH15/VL17 (antibody, V domains shown)
VH: QQLQESGPGLVKPSETLSLTCTVSGFSLSSYAMSWVRQPPGKGLEWIGYIWSGGSTDYNPSLKSRVTISVDTSKNQVSLKLSSVTAADTAVYYCARRYGTSYPDYGDANGFDPWGQGTLVTVSS
VL: B1 VL
B3: 2/99 VH18/VL17 (antibody, V domains shown)
VH: QVQLQESGPGLVKPSQTLSLTCTVSGFSLSSYAMSWIRQHPGKGLEWIGYIWSGGSTDYAPSLKSRVTISVDTSKNQFSLKLSSVTAADTAVYYCARRYGTSYPDYGDANGFDPWGQGTLVTVSS
VL: B1 VL
B4: 2/99 VH21/VL17 (antibody, V domains shown)
VH: B2 VH with Q2S, L3M, E15Q, V36I, P39H, N59A, P60S, S61W, L62A
VL: B1 VL
B5: 2/99 VH16/VL17 (antibody, V domains shown)
VH: B2 VH with Q116P
VL: B1 VL
B6: 2/99 VH13/VL17 (antibody, V domains shown)
VH: B3 VH with Q16E, H40P, A60N, F78V
VL: B1 VL
B7: 2/99 VH11/VL17 (antibody, V domains shown)
VH: B1 VH with V1Q, V4L, T6S, I11V
VL: B1 VL
B8: 2/99 VH9/VL17 (antibody, V domains shown)
VH: B1 VH with V1Q, V4L, T6S, I11V, S27T, L28F, R96K
VL: B1 VL
B9: 2/99 VH5/VL17 (antibody, V domains shown)
VH: B1 VH with V1Q, Q2S, L3M, V4E, Q116P
VL: B1 VL
B10: 2/99 VH7/VL17 (antibody, V domains shown)
VH: B1 VH with V1Q, V47I, D60S, S61W, V62A
VL: B1 VL
B11: 2/99 VH8/VL17 (antibody, V domains shown)
VH: QQLVETGGGLIQPGGSLRLSCAASGFSLSSYAMSWVRQAPGKGLEWIGYIWSGGSTDYASWAKGRFTISKTSTTLYLQMNSLRAEDTAVYYCARRYGTSYPDYGDANGFDPWGQGTLVTVSS
VL: B1 VL
B12: 2/99 VH12/VL17 (antibody, V domains shown)
VH: B3 VH with Q16E, H40P, A60N
VL: B1 VL
B13: 2/99 VH6/VL17 (antibody, V domains shown)
VH: B1 VH with V1Q, V47I
VL: B1 VL
B14: 2/99 VH17/VL17 (antibody, V domains shown)
VH: B2 VH with V70K, Q116P
VL: B1 VL
B15: 2/99 VH20/VL17 (antibody, V domains shown)
VH: B2 VH with Q2S, L3M, E15Q, V36I, P39H, N59A
VL: B1 VL
B16: 2/99 VH19/VL17 (antibody, V domains shown)
VH: B2 VH with Q2S, L3M, E15Q, V36I, P39H, N59A, V77F
VL: B1 VL
B17: 2/99 VH22/VL17 (antibody, V domains shown)
VH: B2 VH with Q2S, L3M, E15Q, P39H, N59A, P60S, S61W, L62A
VL: B1 VL
B18: 2/99 VH2/VL15 (antibody, V domains shown)
VH: EVQLVETGGGLIQPGGSLRLSCAASGFSLSSYAMSWVRQAPGKGLEWVGYIWSGGSTDYADSVKGRFTISRDNSKNTLYLQMNSLRAEDTAVYYCARRYGTSYPDYGDANGFDPWGQGTLVTVSS
VL: DIVMTQSPDSLAVSLGERATINCKSSQSISSYLIWYQQKPGQPPKLLIYRASTLASGVPDRFSGSGSGTDFTLTISSLQAEDVAVYYCQQAYSSSNVDNTFGGGTKVEIK
B19: 2/99 VH19/VL15 (antibody, V domains shown)
VH: B2 VH with Q2S, L3M, E15Q, V36I, P39H, N59A, V77F
VL: B18 VL
B20: 2/99 VH17/VL15 (antibody, V domains shown)
VH: B2 VH with V70K, Q116P
VL: B18 VL
B21: 2/99 VH15/VL15 (antibody, V domains shown)
VH: B2 VH
VL: B18 VL
B22: 2/99 VH7/VL15 (antibody, V domains shown)
VH: B1 VH with V1Q, V47I, D60S, S61W, V62A
VL: B18 VL
B23: 2/99 VH22/VL15 (antibody, V domains shown)
VH: B2 VH with Q2S, L3M, E15Q, P39H, N59A, P60S, S61W, L62A
VL: B18 VL
B24: 2/99 VH5/VL15 (antibody, V domains shown)
VH: B1 VH with V1Q, Q2S, L3M, V4E, Q116P
VL: B18 VL
B25: 2/99 VH12/VL15 (antibody, V domains shown)
VH: B3 VH with Q16E, H40P, A60N
VL: B18 VL
B26: 2/99 VH16/VL15 (antibody, V domains shown)
VH: B2 VH with Q116P
VL: B18 VL
B27: 2/99 VH13/VL15 (antibody, V domains shown)
VH: B3 VH with Q16E, H40P, A60N, F78V
VL: B18 VL
B28: 2/99 VH20/VL15 (antibody, V domains shown)
VH: B2 VH with Q2S, L3M, E15Q, V36I, P39H, N59A
VL: B18 VL
B29: 2/99 VH6/VL15 (antibody, V domains shown)
VH: B1 VH with V1Q, V47I
VL: B18 VL
B30: 2/99 VH18/VL15 (antibody, V domains shown)
VH: B3 VH
VL: B18 VL
B31: 2/99 VH11/VL15 (antibody, V domains shown)
VH: B1 VH with V1Q, V4L, T6S, I11V
VL: B18 VL
B32: 2/99 VH9/VL15 (antibody, V domains shown)
VH: B1 VH with V1Q, V4L, T6S, I11V, S27T, L28F, R96K
VL: B18 VL
B33: 2/99 VH21/VL15 (antibody, V domains shown)
VH: B2 VH with Q2S, L3M, E15Q, V36I, P39H, N59A, P60S, S61W, L62A
VL: B18 VL
B34: 2/99 VH2/VL17 (antibody, V domains shown)
VH: B18 VH
VL: B1 VL
B35: 2/99 VH8/VL15 (antibody, V domains shown)
VH: B11 VH
VL: B18 VL

target: T1, human transferrin receptor (recombinant, for surface plasmon resonance) (human, UniProt P02786 89-760); assay: SPR 25C
T1 construct: also called huTfR; human transferrin receptor-biotinylated
T1 sequence (P02786 89-760 limits assumed): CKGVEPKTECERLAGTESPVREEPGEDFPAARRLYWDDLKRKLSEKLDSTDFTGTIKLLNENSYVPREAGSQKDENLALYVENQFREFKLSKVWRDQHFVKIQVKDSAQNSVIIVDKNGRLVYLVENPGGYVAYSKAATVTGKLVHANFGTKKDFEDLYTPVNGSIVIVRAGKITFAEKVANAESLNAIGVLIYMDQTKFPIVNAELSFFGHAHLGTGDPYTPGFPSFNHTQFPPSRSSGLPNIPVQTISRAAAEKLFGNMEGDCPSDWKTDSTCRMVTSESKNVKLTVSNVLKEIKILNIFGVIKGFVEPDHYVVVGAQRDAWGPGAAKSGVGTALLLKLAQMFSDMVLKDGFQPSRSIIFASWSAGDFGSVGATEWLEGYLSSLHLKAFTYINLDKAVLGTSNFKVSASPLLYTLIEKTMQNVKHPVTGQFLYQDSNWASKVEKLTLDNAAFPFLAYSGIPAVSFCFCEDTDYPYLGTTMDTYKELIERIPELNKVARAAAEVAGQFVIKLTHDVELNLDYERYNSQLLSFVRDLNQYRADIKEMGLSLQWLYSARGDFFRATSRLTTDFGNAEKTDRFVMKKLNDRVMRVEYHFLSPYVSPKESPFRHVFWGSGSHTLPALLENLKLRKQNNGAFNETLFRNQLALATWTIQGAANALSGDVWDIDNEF

Binder | koff
B1 | 0.00756 s⁻¹
B2 | 0.00169 s⁻¹
B3 | 0.0053 s⁻¹
B4 | 0.000997 s⁻¹
B5 | 0.00166 s⁻¹
B6 | 0.00339 s⁻¹
B7 | 0.00755 s⁻¹
B8 | 0.00425 s⁻¹
B9 | 0.00745 s⁻¹
B10 | 0.00187 s⁻¹
B11 | 0.00112 s⁻¹
B12 | 0.00727 s⁻¹
B13 | 0.00717 s⁻¹
B14 | 0.000988 s⁻¹
B15 | 0.00457 s⁻¹
B16 | 0.001 s⁻¹
B17 | 0.000938 s⁻¹
B18 | 0.00638 s⁻¹

Binder | koff
B19 | 0.001 s⁻¹
B20 | 0.00156 s⁻¹
B21 | 0.00603 s⁻¹
B22 | 0.00273 s⁻¹
B23 | 0.00179 s⁻¹
B24 | 0.00637 s⁻¹
B25 | 0.00776 s⁻¹
B26 | 0.00477 s⁻¹
B27 | 0.00711 s⁻¹
B28 | 0.00785 s⁻¹
B29 | 0.00421 s⁻¹
B30 | 0.00758 s⁻¹
B31 | 0.00709 s⁻¹
B32 | 0.00739 s⁻¹
B33 | 0.00192 s⁻¹
B34 | 0.00712 s⁻¹
B35 | 0.00181 s⁻¹
